Data: patent US20250388664A1 (BIOARCTIC, published 2025)

T1: truncated cTfR1 of SEQ ID NO:123 (cynomolgus monkey, UniProt Q5RDH6 122-760 (Pongo abelii entry))
T1 construct: also called cynomolgus TfR1
T1 chain: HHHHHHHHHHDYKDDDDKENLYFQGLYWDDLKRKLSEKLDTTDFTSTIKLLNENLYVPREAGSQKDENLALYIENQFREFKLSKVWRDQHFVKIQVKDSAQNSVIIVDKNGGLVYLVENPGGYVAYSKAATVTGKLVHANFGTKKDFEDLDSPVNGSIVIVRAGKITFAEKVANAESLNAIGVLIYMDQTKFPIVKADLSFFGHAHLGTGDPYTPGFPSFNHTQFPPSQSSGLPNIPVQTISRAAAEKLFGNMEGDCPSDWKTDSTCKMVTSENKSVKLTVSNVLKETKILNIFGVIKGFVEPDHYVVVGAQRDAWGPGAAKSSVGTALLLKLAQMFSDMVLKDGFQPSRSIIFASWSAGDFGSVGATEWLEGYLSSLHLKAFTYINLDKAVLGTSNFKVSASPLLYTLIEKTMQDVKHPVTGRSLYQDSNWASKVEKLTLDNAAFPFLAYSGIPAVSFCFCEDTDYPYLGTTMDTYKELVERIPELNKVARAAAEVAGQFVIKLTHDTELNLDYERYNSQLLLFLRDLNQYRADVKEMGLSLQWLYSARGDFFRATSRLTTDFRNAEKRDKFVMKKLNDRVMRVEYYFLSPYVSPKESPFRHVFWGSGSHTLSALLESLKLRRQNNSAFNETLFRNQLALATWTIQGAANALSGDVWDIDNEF


Key:
[1] = biological target: T2, truncated hTfR1 of SEQ ID NO:122 (human, UniProt P02786 122-760); assay: SPR, FLAG-captured TfR1, scFv injected, 1:1 fit
T2 construct: also called human TfR1; Human TfR1
Description: (§1) The interaction was measured using the single cycle kinetics method with a contact time of 120 s at a flow rate of 30 μl/min followed by a dissociation time of 600 s. Regeneration of the surface between cycles was done by injecting 10 mM glycine-HCl, pH 1.7. The binding data was fitted to a 1:1 interaction model. The scFv variants were diluted in HBS-EP+ (Cytiva. #BR100669). Experiments were performed at 25° C.

[2] = biological target: T1, truncated cTfR1 of SEQ ID NO:123; assay: SPR, FLAG-captured TfR1, scFv injected, 1:1 fit
Description: as §1

T2 sequence (P02786 other isoform, or with tags, fused parts or gaps limits assumed): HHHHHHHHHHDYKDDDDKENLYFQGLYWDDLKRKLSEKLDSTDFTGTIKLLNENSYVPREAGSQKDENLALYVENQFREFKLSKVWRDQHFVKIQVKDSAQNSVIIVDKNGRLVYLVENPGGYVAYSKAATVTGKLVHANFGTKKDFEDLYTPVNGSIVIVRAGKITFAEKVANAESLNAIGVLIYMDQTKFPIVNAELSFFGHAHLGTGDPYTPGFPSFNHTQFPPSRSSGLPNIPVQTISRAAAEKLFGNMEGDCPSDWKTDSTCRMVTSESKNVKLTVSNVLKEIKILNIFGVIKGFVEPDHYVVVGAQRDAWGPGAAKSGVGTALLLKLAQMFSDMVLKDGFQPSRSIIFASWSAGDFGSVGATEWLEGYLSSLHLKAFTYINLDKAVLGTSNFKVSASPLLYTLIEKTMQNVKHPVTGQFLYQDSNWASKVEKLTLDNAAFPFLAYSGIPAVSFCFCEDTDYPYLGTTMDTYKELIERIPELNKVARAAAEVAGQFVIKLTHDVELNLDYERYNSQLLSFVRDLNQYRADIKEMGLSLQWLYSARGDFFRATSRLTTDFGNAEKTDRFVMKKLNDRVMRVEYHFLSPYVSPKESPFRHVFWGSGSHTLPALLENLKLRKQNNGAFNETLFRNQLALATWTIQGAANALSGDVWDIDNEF

Kd [1] [nM] | koff [1] [s⁻¹] | kon [1] [M⁻¹ s⁻¹] | Kd [2] [nM] | koff [2] [s⁻¹] | kon [2] [M⁻¹ s⁻¹] | Binder
59.7 | 0.00388 | 65000 | 240 | 0.0111 | 46200 | h26D3 HC6 DS T91A (scFv, also called h26D3 DS T91A) scFv: HHHHHHGGGGSGGGGSGGGGSGGGGSDIQMTQSPSSVSASVGDRVTITCKSSQSLLYSTNQKNYLAWYQQKPGKAPKLLIYWASTRESGVPSRFSGSGSGTDFTLTISSLQPEDFATYYCQQYFIYPRTFGCGTKVEIKGGGGSGGGGSGGGGSGGGGSEVQLVQSGAEVKKPGSSVKVSCKASGYIFTDYNMDWVRQAPGQCLEWIGDINPDADTTSYNEKFKGRATLTVDKSTSTAYMELSSLRSEDAAVYYCARGGYSGSSYYHPMDYWGQGTLVTVSS
67.1 | 0.00387 | 57800 | 261 | 0.0109 | 41700 | h26D3 HC6 DS S16E L118S (scFv, also called h26D3 DS S16E L118S) scFv: HHHHHHGGGGSGGGGSGGGGSGGGGSDIQMTQSPSSVSASVGDRVTITCKSSQSLLYSTNQKNYLAWYQQKPGKAPKLLIYWASTRESGVPSRFSGSGSGTDFTLTISSLQPEDFATYYCQQYFIYPRTFGCGTKVEIKGGGGSGGGGSGGGGSGGGGSEVQLVQSGAEVKKPGESVKVSCKASGYIFTDYNMDWVRQAPGQCLEWIGDINPDADTTSYNEKFKGRATLTVDKSTSTAYMELSSLRSEDTAVYYCARGGYSGSSYYHPMDYWGQGTSVTVSS
68.9 | 0.00397 | 57700 | 277 | 0.0121 | 43800 | h26D3 HC6 DS S16E (scFv, also called h26D3 DS S16E) scFv: HHHHHHGGGGSGGGGSGGGGSGGGGSDIQMTQSPSSVSASVGDRVTITCKSSQSLLYSTNQKNYLAWYQQKPGKAPKLLIYWASTRESGVPSRFSGSGSGTDFTLTISSLQPEDFATYYCQQYFIYPRTFGCGTKVEIKGGGGSGGGGSGGGGSGGGGSEVQLVQSGAEVKKPGESVKVSCKASGYIFTDYNMDWVRQAPGQCLEWIGDINPDADTTSYNEKFKGRATLTVDKSTSTAYMELSSLRSEDTAVYYCARGGYSGSSYYHPMDYWGQGTLVTVSS
54 | 0.00465 | 90400 | 222 | 0.0113 | 51500 | h26D3 HC6 DS V11R (scFv, also called h26D3 DS V11R) scFv: HHHHHHGGGGSGGGGSGGGGSGGGGSDIQMTQSPSSVSASVGDRVTITCKSSQSLLYSTNQKNYLAWYQQKPGKAPKLLIYWASTRESGVPSRFSGSGSGTDFTLTISSLQPEDFATYYCQQYFIYPRTFGCGTKVEIKGGGGSGGGGSGGGGSGGGGSEVQLVQSGAERKKPGSSVKVSCKASGYIFTDYNMDWVRQAPGQCLEWIGDINPDADTTSYNEKFKGRATLTVDKSTSTAYMELSSLRSEDTAVYYCARGGYSGSSYYHPMDYWGQGTLVTVSS
60 | 0.00393 | 66200 | 243 | 0.0107 | 44000 | h26D3 HC6 DS L118S (scFv, also called h26D3 DS L118S) scFv: HHHHHHGGGGSGGGGSGGGGSGGGGSDIQMTQSPSSVSASVGDRVTITCKSSQSLLYSTNQKNYLAWYQQKPGKAPKLLIYWASTRESGVPSRFSGSGSGTDFTLTISSLQPEDFATYYCQQYFIYPRTFGCGTKVEIKGGGGSGGGGSGGGGSGGGGSEVQLVQSGAEVKKPGSSVKVSCKASGYIFTDYNMDWVRQAPGQCLEWIGDINPDADTTSYNEKFKGRATLTVDKSTSTAYMELSSLRSEDTAVYYCARGGYSGSSYYHPMDYWGQGTSVTVSS
